# Tests used:
# [1] = target: T1, mesothelin on NCI-H2052 mesothelioma cells overexpressing mesothelin (UniProt Q13421 296-598); assay: flow cytometry on NCI-H2052 cells, 1 ug antibody, PE goat anti-mouse IgG secondary
# T1 construct: whole, on cells; NCI-H2052 is a human cell line and the positive control is anti-human mesothelin; also called H2052 cells; cells expressing mesothelin
# [2] = target: T2, mesothelin protein (Acrobiosystems, cat #MSN-H5223) (UniProt Q13421 296-580); assay: ELISA, mesothelin peptide coated 100 ng/well, 100 ul hybridoma culture, anti-mIgG-HRP
# T2 construct: The catalogue number is printed only for the immunogen; also called mesothelin peptide; MSLN
# T2 sequence (Q13421 other isoform, or with tags, fused parts or gaps limits assumed): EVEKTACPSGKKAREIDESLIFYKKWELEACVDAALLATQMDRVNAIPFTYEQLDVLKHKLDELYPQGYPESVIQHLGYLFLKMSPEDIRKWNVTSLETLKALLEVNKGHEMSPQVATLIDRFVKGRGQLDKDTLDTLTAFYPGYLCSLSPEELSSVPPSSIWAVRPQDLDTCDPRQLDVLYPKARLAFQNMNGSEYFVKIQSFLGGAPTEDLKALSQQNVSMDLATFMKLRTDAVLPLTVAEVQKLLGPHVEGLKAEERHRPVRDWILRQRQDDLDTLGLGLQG
# Experimental: First, in order to encode the mesothelin peptide, mesothelin peptide was dispensed into a 96-well plate at an amount of 100 ng/well and reacted overnight at 4° C. Then, after treatment with 1×PBST containing 3% BSA, it was blocked for 30 minutes at room temperature. […] The secondary antibody (anti-HRP, 1:10,000) was treated and reacted at room temperature for 30 minutes, washed three times with 1×PBST, and then treated with TMB for color development and reacted at room temperature for 5 minutes. Finally, the reaction was terminated by treatment with a stop solution of 1N H₂SO₄, and then the absorbance was measured at 450 nm.
# T1 sequence (Q13421 other isoform, or with tags, fused parts or gaps limits assumed): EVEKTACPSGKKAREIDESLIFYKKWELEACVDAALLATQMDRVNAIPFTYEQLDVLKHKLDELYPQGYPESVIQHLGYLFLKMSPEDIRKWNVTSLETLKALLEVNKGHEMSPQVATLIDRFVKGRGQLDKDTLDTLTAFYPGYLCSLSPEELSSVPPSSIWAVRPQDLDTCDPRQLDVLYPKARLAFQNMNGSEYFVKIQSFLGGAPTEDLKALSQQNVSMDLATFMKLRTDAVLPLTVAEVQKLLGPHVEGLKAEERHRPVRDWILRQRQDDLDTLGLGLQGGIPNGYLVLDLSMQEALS
Binder,Mean [1],Median [1],OD 450 measurements [2] [OD 450]
"9E11 antibody (antibody, V domains shown, Mouse hybridoma monoclonal antibody, detected with anti-mouse IgG) VH: QVQLKESGPGLVKPSQSLSLTCTVTGYSITSDYAWNWIRQFPGNKLEWMGYISYSGSTRYNPSLKSRISITRDTSKNQFFLQLNSVTTEDTATYYCARGAAGFAYWGQGTLVTVSA VL: DIVMTQSPASQSASLGESVTITCLASQTIGTWLAWYQQKPGKSPQLLIYAATSLADGVPSRFSGSGSGTEFSFKISSLQAEDFVSYYCQQLYSTPWTFGGGTKLEIK",81.4,69.1,1.64
"3A8 antibody (antibody, V domains shown, Mouse hybridoma monoclonal antibody; Tested as hybridoma culture supernatant in ELISA and at 1 ug in flow cytometry, detected with anti-mouse IgG; The printed VH and VL are identical to those of 9E8) VH: EVQLQQSGPELVKPGASMKISCKASGYSFTGYTMNWVKQSHGKNLEWIGLINPYNGGTSYNQKFKGKATLTVDKSSSTAYMELLSLTSEDSAVYYCARVGGSSWYFDVWGAGTTVTVSS VL: not shown",861,704,1.27
"7C3 antibody (antibody, V domains shown, Mouse hybridoma monoclonal antibody, detected with anti-mouse IgG) VH: EVQLQQSGAELMRPGASVKISCKATGYTFSAYWIEWVKQRPGHGLEWIGEILPGSGSTKYNEKFKGKATFTADTSSNTAYMQLSSLTSEDSAVYYCARGDYYAMDYWGQGTSVTVSS VL: not shown",528,444,1.52

# More lines, now with the values ahead:
Mean [1],Median [1],OD 450 measurements [2] [OD 450],Binder
77.7,56.2,0.758,"9E8 antibody (antibody, V domains shown, Mouse hybridoma monoclonal antibody, detected with anti-mouse IgG; The printed VH and VL are identical to those of 3A8) VH: EVQLQQSGPELVKPGASMKISCKASGYSFTGYTMNWVKQSHGKNLEWIGLINPYNGGTSYNQKFKGKATLTVDKSSSTAYMELLSLTSEDSAVYYCARVGGSSWYFDVWGAGTTVTVSS VL: not shown"
63.2,58.5,1.49,"5A9 antibody (antibody, V domains shown, Mouse hybridoma monoclonal antibody, detected with anti-mouse IgG) VH: EVQLEESGPAVIKPSQSLSLTCIVSGFSITSSSYCWHWIRQPPGKGLEWMGRICYEGSIYYSPSIKSRFTISRDTSLNKFFIQLSSVTNEDTAMYYCSRENRLLKDAMDYWGQGTSVTVSS VL: DIVMTQSPSSLAVSAGEKVTMSCKSSQSLLSSRTRKNYLAWYQQKPGQSPKLLIYWASTRESGVPDRFTGSGSGTDFTLTISSVQAEDLAVYYCKQSYNLRTFGGGTKLEIK"
1260,1120,1.35,"4G11 antibody (antibody, V domains shown, Mouse hybridoma monoclonal antibody, detected with anti-mouse IgG) VH: EVQLQQSGPELVKTGDSVKISCKASGYSFTGYYMHWVKQSHGKSLEWIGYISCYNGATSYSQKFKGKATFTVDTSSSTAYMQFNSLTSEDSAVYYCARWDRDWFAYWGQGTLVTVSA VL: DIVMTQSHKFMSTSVGDRVSITCKASQDVGIAVAWYQQKPGQSPKLLIYWASTRHTGVPDRFTGSGSGTDFTLTISNVQSEDLADYFCQQYSSYPFTFGSGTKLEIK"
